In patent US11872270B2, “A*03 restricted peptides for use in immunotherapy against cancers and related methods” (Immatics Biotechnologies GmbH, priority 2018, dated 2024):

How the values were obtained:
CD8+ T cells = assay: In vitro T-cell priming assay (immunogenicity) with aAPCs loaded with peptide/MHC complexes and anti-CD28 antibody; format: cell-based, human; conditions: for Wells positive [%]: in vitro immunogenicity; for in vitro immunogenicity (peptide-specific CD8+ T cell response): healthy donors, multimer staining after three cycles of stimulation
HLA-A*03:01 = HLA-A*03:01 (Homo sapiens, UniProt P04439); assay: MHC binding assay (UV-ligand exchange, β2m ELISA); conditions: for Peptide exchange (MHC class I binding score, peptide exchange yield): binding to HLA-A*03:01, UV-ligand exchange, β2m ELISA
In short: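 Peptide-MHC complexes formed by UV-ligand exchange of a UV-cleavable peptide for the test peptide; exchange yield quantified by β2m ELISA. Streptavidin-coated capture, samples diluted 100-fold, 1 h at 37 °C, HRP anti-β2m detection, TMB read at 450 nm against HLA-A*02:01/MLA-001 monomer standards (15–500 ng/ml).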

[1] = HLA-A*03 restricted peptides, Table 10b

Substance	Peptide exchange (MHC class I binding score, peptide exchange yield) (HLA-A*03:01)	also measured
29 (KVLSILSRLK; listed as Homo sapiens) [compound 29]	+++ (>50 = +++)	Wells positive [%] (CD8+ T cells; [1]): “+” (1-19% = +)
33 (KLLEDMVEK; listed as Homo sapiens) [compound 33]	++ (>20% = ++)	Wells positive [%] (CD8+ T cells; [1]): “+” (1-19% = +)
45 (KCYEVGMMK; listed as Homo sapiens) [compound 45]	++++ (>75% = ++++)	Wells positive [%] (CD8+ T cells; [1]): “+” (1-19% = +)
46 (VVTGNVPLK; listed as Homo sapiens) [compound 46]	+++ (>50 = +++)	Wells positive [%] (CD8+ T cells; [1]): “+” (1-19% = +)
52 (GMYEYGSIEK; listed as Homo sapiens) [compound 52]	++++ (>75% = ++++)	Wells positive [%] (CD8+ T cells; [1]): “+” (1-19% = +)
57 (RVLYRPQLEK; listed as Homo sapiens) [compound 57]	+++ (>50 = +++)	Wells positive [%] (CD8+ T cells; [1]): “+” (1-19% = +)
64 (SVLSRMLVR; listed as Homo sapiens) [compound 64]	++++ (>75% = ++++)	Wells positive [%] (CD8+ T cells; [1]): “+” (1-19% = +)
69 (GLSTILLYH; listed as Homo sapiens) [compound 69]	++++ (>75% = ++++)	Wells positive [%] (CD8+ T cells; [1]): “+” (1-19% = +)
71 (VLYELGIIGNNK; listed as Homo sapiens) [compound 71]	+++ (>50 = +++)	Wells positive [%] (CD8+ T cells; [1]): “+” (1-19% = +)
77 (VVDDSQLPK; listed as Homo sapiens) [compound 77]	++ (>20% = ++)	Wells positive [%] (CD8+ T cells; [1]): “+” (1-19% = +)
81 (HLFLPFSYK; listed as Homo sapiens) [compound 81]	++++ (>75% = ++++)	Wells positive [%] (CD8+ T cells; [1]): “+” (1-19% = +)
214 (KLFTSVFGVGLK; listed as Homo sapiens) [compound 214]	++++ (>75% = ++++)	Wells positive [%] (CD8+ T cells; [1]): “+” (1-19% = +)
215 (KIWQNLRLK; listed as Homo sapiens) [compound 215]	+++ (>50 = +++)	–
216 (RVSSVKLISK; listed as Homo sapiens) [compound 216]	+++ (>50 = +++)	–
217 (RVYEGDGRNSLK; listed as Homo sapiens) [compound 217]	+++ (>50 = +++)	–
218 (KAFNQSSIFTK; listed as Homo sapiens) [compound 218]	+++ (>50 = +++)	–
219 (ALERKFRQK; listed as Homo sapiens) [compound 219]	++++ (>75% = ++++)	–
220 (ALPRQAFHSK; listed as Homo sapiens) [compound 220]	++++ (>75% = ++++)	–
221 (RLAVSTRGK; listed as Homo sapiens) [compound 221]	++++ (>75% = ++++)	–
222 (RSNPYFQNK; listed as Homo sapiens) [compound 222]	++++ (>75% = ++++)	–
223 (GISNPITTSK; listed as Homo sapiens) [compound 223]	++++ (>75% = ++++)	–
224 (SLYDGFLSY; listed as Homo sapiens) [compound 224]	++++ (>75% = ++++)	–

Substance	Peptide exchange (MHC class I binding score, peptide exchange yield) (HLA-A*03:01)	also measured
225 (RVYPRPPSKTY; listed as Homo sapiens) [compound 225]	++++ (>75% = ++++)	–
226 (RVWLGKHYK; listed as Homo sapiens) [compound 226]	++++ (>75% = ++++)	–
232 (AVAPPTPASK; listed as Homo sapiens) [compound 232]	–	Wells positive [%] (CD8+ T cells; Table 10a): + (<20% = +)
233 (KTYETNLEIKK; listed as Homo sapiens) [compound 233]	–	Wells positive [%] (CD8+ T cells; Table 10a): + (<20% = +)
234 (VVFPFPVNK; listed as Homo sapiens) [compound 234]	–	Wells positive [%] (CD8+ T cells; Table 10a): + (<20% = +)
237 (VLYGPAGLGK; listed as Homo sapiens) [compound 237]	–	Wells positive [%] (CD8+ T cells; Table 10a): + (<20% = +)
248 (GLASRILDAK; listed as Homo sapiens) [compound 248]	–	Wells positive [%] (CD8+ T cells; Table 10a): + (<20% = +)
249 (ATSGVPVYK; listed as Homo sapiens) [compound 249]	–	Wells positive [%] (CD8+ T cells; Table 10a): ++++ (>=70% = ++++)
252 (AVYNYPEGAAY; listed as Homo sapiens) [compound 252]	++++ (>75% = ++++)	–
253 (KLSLSHKK; listed as Homo sapiens) [compound 253]	+++ (>50 = +++)	–
254 (SVLDKLLFH; listed as Homo sapiens) [compound 254]	++++ (>75% = ++++)	–
256 (AVIGALLAVGATK; listed as Homo sapiens) [compound 256]	+++ (>50 = +++)	–
258 (QVRDTLKIVFK; listed as Homo sapiens) [compound 258]	+++ (>50 = +++)	–
259 (RSYVPLAH; listed as Homo sapiens) [compound 259]	++++ (>75% = ++++)	–
261 (AVAQKLLSH; listed as Homo sapiens) [compound 261]	++++ (>75% = ++++)	–
262 (TMWQIPQEFVK; listed as Homo sapiens) [compound 262]	++++ (>75% = ++++)	–
271 (RLPLRVVKH; listed as Homo sapiens) [compound 271]	++++ (>75% = ++++)	–
272 (AVCGGVLVH; listed as Homo sapiens) [compound 272]	++++ (>75% = ++++)	–
ATSGVPVYK (listed as Homo sapiens) [SEQ ID NO: 249]	–	in vitro immunogenicity (peptide-specific CD8+ T cell response) (CD8+ T cells): peptide-specific in vitro CD8+ T cell responses
AVCGGVLVH (listed as Homo sapiens) [SEQ ID NO: 272]	–	binding to HLA-A*03 (HLA-A*03:01): binds to HLA-A*03
GLASRILDAK (listed as Homo sapiens) [SEQ ID NO: 248]	–	in vitro immunogenicity (peptide-specific CD8+ T cell response) (CD8+ T cells): peptide-specific in vitro CD8+ T cell responses
RLPLRVVKH (listed as Homo sapiens) [SEQ ID NO: 271]	–	binding to HLA-A*03 (HLA-A*03:01): binds to HLA-A*03
